Test results from patent US5851983A, “Elastase inhibitory polypeptide and process for production thereof by recombinant gene technology” (Teijin Limited, priority 1987, dated 1998).

What was measured:
[1] = Partial hydrolysis with healthy human saliva (Examples 15, 16); format: in vitro ADME; settings: 37° C.
Protocol: Healthy human saliva was filtered through a 0.22 μm filter (Milex GS, Milipore), and in the filtrate was dissolved 1 mg/ml of the SLPI prepared in Reference Example 1. The mixture was then incubated at 37° C. for 30 days. As a control, the SLPI was dissolved in physiological saline (Physisalz; Fuso Yakuhin Kogyo), and the mixture was incubated at 37° C. for 30 days.
With an elapse of time, samples were taken and to each sample were added a Tris-HCl buffer (pH 6.8), SDS, 2-mercaptoethamel and glycerol, to final concentration of 60 mM, 2% by weight, 4% by weight and 10% by weight, respectively, and the mixture was subjected to an SDS-PAGE (U.K. Laemmli, Nature, 227, 680, 1970). The gel after electrophoresis was stained with Coomussie Brilliant Blue.
Next, polypeptides in the polyacrylamide gel thus obtained were electrically transferred to a membrane (Immobilon; Milipore) using a Milli Blot-SDE apparatus. After the transfer, the membrane was stained with 0.1% by weight of Coomassie Blue in 40% by weight methanol/1% by weight acetic acid, and washed with water. Then, after air drying, the bands b, c, d and e were excised, and for each band, the PTH-amino acids were cleaved from the N-terminus with an Applied Biosystems Protein Sequences (Applied Biosystems; 470A) and analysed with a PTH analyser (Applied Biosystems, 120A) to determine an amino acid sequence for 10 amino acids from the N-terminus.
According to the same procedure as described in Example 15, (Asn^55 -Ala^107) SLPI prepared in Example 11 was treated with healthy human saliva at 37° C., and a result is shown in FIG. 13. […] After 12 hours, a new band g (MW about 5,500) appeared.
Next, according to the same procedure as described in Example 15, the band g was electrically transferred to a membrane and N-terminal amino acid sequence was analyzed. […] The 6th amino acid could not be determined. The N-terminal amino acid sequence of the band g corresponds to an amino acid sequence starting from Arg^59 of SLPI.

elastase and trypsin = settings: R. C. Thompson et al., Proc. Natl. Acad. Sci. USA, 83, 6692; cited from earlier work
[2] = target: T1, polymorphonuclear leucocyte elastase from human sputum (Homo sapiens, UniProt P08246); test: Assay for elastase inhibitor activity (Example 24); format: biochemical; settings: enzyme 2 × 10^-8 M, substrate 3.0 × 10^-4 M
T1 construct: Polymorphonuclear leukocyte elastase from human sputum (EPC Co; Funakoshi Yakuhin); purchased EPC Co. (via Funakoshi Yakuhin); host or cells: human sputum
T1 sequence (P08246 30-267): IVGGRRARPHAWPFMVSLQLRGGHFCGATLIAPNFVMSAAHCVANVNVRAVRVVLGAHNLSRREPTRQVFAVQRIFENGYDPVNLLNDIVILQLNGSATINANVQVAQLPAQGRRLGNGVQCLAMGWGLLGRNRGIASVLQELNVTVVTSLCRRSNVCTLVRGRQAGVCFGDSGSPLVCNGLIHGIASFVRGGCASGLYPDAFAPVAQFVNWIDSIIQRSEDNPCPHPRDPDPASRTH
Protocol: The following assay method was used.
Buffer: 0.1M (2-hydroxyethyl)piperazine-N'-2-ethansulfonic acid (HEPES), 0.5M NaCl, pH 7.5.
Enzyme concentration: the following enzyme was dissolved in the above-mentioned buffer to a concentration 9 times that shown in Table 12.
A. Polymorphonuclear leucocyte elastase from human sputum (EPC Co., Funakoshi Yakuhin)
Substrate solution: for the enzymes A, B, C, D and E, the following substrate a, b, c, d or e, respectively, was dissolved in a solution of DMSO+the above-mentioned buffer (1:9) (note, final concentration of DMSO was 10% in the buffer) to a concentration of 9 times that shown in Table 12.
a. MeO-Suc-Ala-Ala-Pro-Val-pNA (Bachem) […]
To wells of an ELISA 96-well microtiter plate, were added 120 μl of the buffer and the 20 μl of a sample solution of (Arg^59 -Ala^107) SLPI obtained in Example 23, followed by 20 μl of the enzyme solution. The mixture was reacted at 37° C. for 10 minutes. Next, 20 μl of the substrate was added, and developed at 37° C. The developed color was measured by absorption at 405 nm.
As a control the same procedure was carried out using SLPI.

Human plasma kallikrein [3] = target: T2, Human plasma kallikrein (Homo sapiens, UniProt P03952); test: Assay for kallikrein inhibitory activity (Example 25); format: biochemical; settings: final concentration up to ×10^-5 M; enzyme 1.0 × 10^-7 M
T2 construct: (7) Human plasma kallikrein (Kabi, Daiichi Kagaku Yakuhin); purchased Kabi (via Daiichi Kagaku Yakuhin); host or cells: human plasma
Protocol: (§1) H. Human plasma kallikrein (Protogene, Funakoshi Yakuhin)
Kallikrein: 50 mM Tris-HCl, 361 mM NaCl, 0.01 mg/ml polybrene (pH 7.8) […]
Substrate solution: for the enzymes F, G, H and I, the following substrate f, g, h or i, respectively, was dissolved to a final concentration shown in Table 14.
(§2) h. H.D-Pro-Phe-Arg-pNA (Kabi Vitram)
(§3) To wells of an ELISA 96-well microtiter plate, were added a solution of (Arg^59 -Ala^107) SLPI obtained in Example 23 and then the enzyme solution, and the mixture was incubated at 37° C. for 10 minutes. Next, the substrate solution was added to develop the color, whose absorption was then measured at 405 nm. As a control, SLPI was used.

Human plasma kallikrein [4] = target: T2, Human plasma kallikrein; test: Assay for kallikrein inhibitory activity (Example 36); format: biochemical; settings: final concentration up to ×10^-5 M; enzyme 1.0 × 10^-7 M
Protocol: as §1
Kallikrein: 50 mM Tris-HCl, 361 mM NaCl, 0.01 mg/ml Polybrene (pH 7.8) […]
(§4) Substrate solution: for the enzymes F, G, H and I, the following substrate f, g, h or i, respectively, was dissolved to a final concentration shown in Table 24.
as §2
as §3, with “(Arg^58” for “(Arg^59”, “34” for “23”

Human plasma thrombin = target: T3, Human plasma thrombin (Homo sapiens, UniProt P00734); test: Assay for thrombin inhibitory activity (Example 36); format: biochemical; settings: final concentration up to ×10^-5 M; enzyme 3 × 10^-9 M
T3 construct: (5) Human plasma thrombin (Kabi, Daiichi Kagaku Yakuhin); purchased Kabi (via Daiichi Kagaku Yakuhin); host or cells: human plasma
Protocol: F. Human plasma thrombin (Sigma)
Thrombin and FXa: 50 mM Tris-HCl, 7.5 mM EDTA-2Na, 175 mM NaCl (pH 8.4) […]
as §4
f. H.D-Phe-Pip-Arg-pNA (Kabi Vitrum)
as §3, with “(Arg^58” for “(Arg^59”, “34” for “23”

T2 sequence (P03952 391-638 limits assumed): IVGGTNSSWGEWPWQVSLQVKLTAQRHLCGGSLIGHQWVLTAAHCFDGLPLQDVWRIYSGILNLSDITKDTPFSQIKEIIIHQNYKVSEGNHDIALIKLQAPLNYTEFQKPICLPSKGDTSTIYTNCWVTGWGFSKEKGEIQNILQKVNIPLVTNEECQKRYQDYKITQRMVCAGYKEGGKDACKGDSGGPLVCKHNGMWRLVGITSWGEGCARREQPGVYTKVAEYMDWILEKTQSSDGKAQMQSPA
T2 sequence (P03952 20-390 partner limits assumed): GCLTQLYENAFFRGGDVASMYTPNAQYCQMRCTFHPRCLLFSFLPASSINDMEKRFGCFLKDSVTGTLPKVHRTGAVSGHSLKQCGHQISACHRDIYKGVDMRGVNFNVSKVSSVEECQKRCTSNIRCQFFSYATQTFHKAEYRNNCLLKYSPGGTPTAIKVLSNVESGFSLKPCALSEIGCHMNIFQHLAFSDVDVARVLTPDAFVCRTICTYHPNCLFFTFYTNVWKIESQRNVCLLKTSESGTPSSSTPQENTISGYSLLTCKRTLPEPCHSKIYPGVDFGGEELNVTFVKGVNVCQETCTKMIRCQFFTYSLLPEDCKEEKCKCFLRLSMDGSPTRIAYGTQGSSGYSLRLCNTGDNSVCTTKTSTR

B1: SLPI: Human secretory leukoprotease inhibitor; recombinant SLPI of Reference Example 1 used as control (protein)
chain: SGKSFKAGVCPPKKSAQCLRYKKPECQSDWQCPGKKRCCPDTCGIKCLDPVDTPNPTRRKPGKCPVTYGQCLMLNPPNFCEMDGQCKRDLKCCMGMCGKSCVSPVKA
SDS-PAGE band of SLPI (MW about 13,000) during incubation in healthy human saliva ([1]; 1 mg/ml, up to 30 days): decreased as time elapid | SDS-PAGE band after incubation in physiological saline (control) ([1]; 30 days): maintained a band having an MW of about 13,000 during the incubation | cleavage sites in healthy human saliva ([1]; SDS-PAGE bands, N-terminal sequencing): between Arg^20 -Try^21, Arg^58 -Arg^59, Leu^72 -Met^73, and Met^73 -Leu^74 | Ki(E) compared with Ki(T) (elastase and trypsin): Ki(E) is roughly equivalent to Ki(T) | IC50 [2]: 13 nM | inhibitory activity to kallikrein (Human plasma kallikrein [3]): did not exhibit inhibitory activity | inhibitory activity to kallikrein (Human plasma kallikrein [4]): did not exhibit inhibitory activity | inhibitory activity to thrombin (Human plasma thrombin): did not exhibit inhibitory activity
